Data as given in patent US7495068B2, “Antiangiogenic peptides, polypeptides encoding same and methods for inhibiting angiogenesis” (Abbott Laboratories, priority 1996, dated 2009).

B1: kringle 2 (Glu^161-Thr^245): kringle 2 fragment of plasminogen, SEQ ID NO:1 (protein, listed as Homo sapiens)
chain: ECEEECMHCSGENYDGKISKTMSGLECQAWDSQSPHAHGYIPSKFPNKNLKKNYCRNPDRELRPWCFTTDPNKRWELCDIPRCTT
B2: kringle 5 (Val^443-Ala^543): kringle 5 peptide fragment, amino acid positions 443-543 of human plasminogen (SEQ ID NO:1) (protein, listed as Homo sapiens)
chain: VAPPPVVLLPDVETPSEEDCMFGNGKGYRGKRATTVTGTPCQDWAAQEPHRHSIFTPETNPRAGLEKNYCRNPDGDVGGPWCYTTNPRKLYDYCDVPQCAA
B3: kringle 4 (Val^354-Val^443): kringle 4 fragment of plasminogen, SEQ ID NO:1 (protein, listed as Homo sapiens)
chain: VVQDCYHGDGQSYRGTSSTTTTGKKCQSWSSMTPHRHQKTPENYPNAGLTMNYCRNPDADKGPWCFTTDPSVRWEYCNLKKCSGTEASVV

Tests used:
BCE Cells [1] = conditions: rows marked *: data taken from Marti et al. 1994; cited from earlier work
BCE Cells [2] = experiment: Endothelial proliferation assay (bFGF-stimulated); assay type: cell-based, bovine
Method: The in vitro proliferation of endothelial cells was determined as described by Lingen, et al., in Laboratory Investigation, 74: 476-483 (1996), which is hereby incorporated herein by reference, using the Cell Titer 96 Aqueous Non-Radioactive Cell Proliferation Assay kit (Promega® Corporation, Madison, Wis.). Bovine capillary (adrenal) endothelial cells were plated at a density of 1000 cells per well in a 96-well plate in Dulbecco's Modified Eagle Medium (DMEM) containing 10% donor calf serum and 1% BSA (bovine serum albumin, GIBCO® BRL, Gaithersburg, Md.). After 8 hours, the cells were starved overnight in DMEM containing 0.1% BSA then re-fed with media containing specified concentrations of inhibitor and 5 ng/mL bFGF (basic fibroblast growth factor). The results of the assay were corrected both for unstimulated cells (i.e. no bFGF added) as the baseline and for cells stimulated with bFGF alone (i.e. no inhibitor added) as the maximal proliferation. When multiple experiments were combined, the results were represented as the percent change in cell number as compared to bFGF alone.
The effect of kringle 5 peptide fragments on endothelial cell proliferation was determined in vitro using the above described endothelial cell proliferation assay. […]

Row | Molecule | Antiproliferative Activity of BCE Cells (ED50) (BCE Cells [1]) | fold increase in activity at inhibiting BCE cell proliferation compared to kringle 1-4 peptide fragments (BCE Cells [2]; vs kringle 1-4 peptide fragments) [fold] | fold increase in activity at inhibiting BCE cell proliferation compared to kringle 5 fragment 443-546 of SEQ ID NO:1 (BCE Cells [2]; vs kringle 5 (443-546)) [fold]
1 | B1 | no activity |  | 
2 | B2 |  | ~800 | ~300
3 | B3 | no activity |  | 
